B1: Potassium voltage-gated channel protein eag (Drosophila melanogaster (Fruit fly)), Q02280 (parent)
chain: MPGGRRGLVAPQNTFLENIIRRSNSQPDSSFLLANAQIVDFPIVYCNESFCKISGYNRAEVMQKSCRYVCGFMYGELTDKETVGRLEYTLENQQQDQFEILLYKKNNLQCGCALSQFGKAQTQETPLWLLLQVAPIRNERDLVVLFLLTFRDITALKQPIDSEDTKGVLGLSKFAKLARSVTRSRQFSAHLPTLKDPTKQSNLAHMMSLSADIMPQYRQEAPKTPPHILLHYCAFKAIWDWVILCLTFYTAIMVPYNVAFKNKTSEDVSLLVVDSIVDVIFFIDIVLNFHTTFVGPGGEVVSDPKVIRMNYLKSWFIIDLLSCLPYDVFNAFDRDEDGIGSLFSALKVVRLLRLGRVVRKLDRYLEYGAAMLILLLCFYMLVAHWLACIWYSIGRSDADNGIQYSWLWKLANVTQSPYSYIWSNDTGPELVNGPSRKSMYVTALYFTMTCMTSVGFGNVAAETDNEKVFTICMMIIAALLYATIFGHVTTIIQQMTSATAKYHDMLNNVREFMKLHEVPKALSERVMDYVVSTWAMTKGLDTEKVLNYCPKDMKADICVHLNRKVFNEHPAFRLASDGCLRALAMHFMMSHSAPGDLLYHTGESIDSLCFIVTGSLEVIQDDEVVAILGKGDVFGDQFWKDSAVGQSAANVRALTYCDLHAIKRDKLLEVLDFYSAFANSFARNLVLTYNLRHRLIFRKVADVKREKELAERRKNEPQLPQNQDHLVRKIFSKFRRTPQVQAGSKELVGGSGQSDVEKGDGEVERTKVFPKAPKLQASQATLARQDTIDEGGEVDSSPPSRDSRVVIEGAAVSSATVGPSPPVATTSSAAAGAGVSGGPGSGGTVVAIVTKADRNLALERERQIEMASSRATTSDTYDTGLRETPPTLAQRDLIATVLDMKVDVRLELQRMQQRIGRIEDLLGELVKRLAPGAGSGGNAPDNSSGQTTPGDEICAGCGAGGGGTPTTQAPPTSAVTSPVDTVITISSPGASGSGSGTGAGAGSAVAGAGGAGLLNPGATVVSSAGGNGLGPLMLKKRRSKSRKAPAPPKQTLASTAGTATAAPAGVAGSGMTSSAPASADQQQQHQSTADQSPTTPGAELLHLRLLEEDFTAAQLPSTSSGGAGGGGGSGSGATPTTPPPTTAGGSGSGTPTSTTATTTPTGSGTATRGKLDFL
partner: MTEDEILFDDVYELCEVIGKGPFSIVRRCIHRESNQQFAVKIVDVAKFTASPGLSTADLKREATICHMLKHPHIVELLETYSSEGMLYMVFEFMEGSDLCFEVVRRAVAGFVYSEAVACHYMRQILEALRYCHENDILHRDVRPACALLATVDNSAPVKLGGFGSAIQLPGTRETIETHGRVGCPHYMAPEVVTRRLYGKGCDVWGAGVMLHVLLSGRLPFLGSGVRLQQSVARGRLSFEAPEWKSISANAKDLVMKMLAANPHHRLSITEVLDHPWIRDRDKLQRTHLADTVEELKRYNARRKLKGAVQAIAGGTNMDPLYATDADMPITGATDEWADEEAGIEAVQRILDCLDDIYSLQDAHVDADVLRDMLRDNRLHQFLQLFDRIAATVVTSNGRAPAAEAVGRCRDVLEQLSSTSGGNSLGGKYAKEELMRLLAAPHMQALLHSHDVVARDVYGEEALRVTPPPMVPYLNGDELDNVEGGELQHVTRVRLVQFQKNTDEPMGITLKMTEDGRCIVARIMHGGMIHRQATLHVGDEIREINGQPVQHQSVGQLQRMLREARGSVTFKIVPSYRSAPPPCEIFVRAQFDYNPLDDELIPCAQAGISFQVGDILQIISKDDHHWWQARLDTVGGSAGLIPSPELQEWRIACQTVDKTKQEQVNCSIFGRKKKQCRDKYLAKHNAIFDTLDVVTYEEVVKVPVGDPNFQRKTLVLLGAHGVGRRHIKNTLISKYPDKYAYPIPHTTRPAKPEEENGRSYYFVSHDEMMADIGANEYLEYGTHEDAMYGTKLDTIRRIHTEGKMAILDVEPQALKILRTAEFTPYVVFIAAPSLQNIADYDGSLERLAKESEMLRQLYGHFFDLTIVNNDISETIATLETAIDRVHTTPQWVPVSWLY

Variants of: B1
Details: with cskp_drome CASK

Variant	effect of a mutation on the interaction
R1037L	decreasing interaction
K1040M	decreasing interaction

— IntAct's records for PubMed 15901771
